In patent US20210395381A1 (OSSIANIX, published 2021):

B1: Clone 8.23 (VNAR)
VNAR: ARVDQTPQTITKETGESLTINCVLRDSNCALPSTYWYRKKSGSTNEESISKGGRYVETVNSGSKSFSLRINDLTVEDSGTYRCKVIAQLPKQLRGCNYRKHDVYGDGTAVTVNA
notes: VNAR on phage; Clone 8 framework
B2: Clone 8.26 (VNAR)
VNAR: ARVDQTPQTITKETGESLTINCVLRDSNCALPSTYWYRKKSGSTNEESISKGGRYVETVNSGSKSFSLRINDLTVEDSGTYRCKVIASAFSILRGCNYRKHDVYGDGTAVTVNA
notes: as for B1
B3: Clone 8.37 (VNAR)
VNAR: ARVDQTPQTITKETGESLTINCVLRDSNCALPSTYWYRKKSGSTNEESISKGGRYVETVNSGSKSFSLRINDLTVEDSGTYRCKVIAQLSSQRWGCNYRKHDVYGDGTAVTVNA
notes: as for B1
B4: Clone 8.31 (VNAR)
VNAR: ARVDQTPQTITKETGESLTINCVLRDSNCALPSTYWYRKKSGSTNEESISKGGRYVETVNSGSKSFSLRINDLTVEDSGTYRCKVIAQLISILRGCNKNKHDVYGDGTAVTVNA
notes: as for B1
B5: Clone 8.40 (VNAR)
VNAR: ARVDQTPQTITKETGESLTINCVLRDSNCALPSTYWYRKKSGSTNEESISKGGRYVETVNSGSKSFSLRINDLTVEDSGTYRCKVIAQLYVGLRGCNYRKHDVYGDGTAVTVNA
notes: as for B1
B6: Clone 8.39 (VNAR)
VNAR: ARVDQTPQTITKETGESLTINCVLRDSNCALPSTYWYRKKSGSTNEESISKGGRYVETVNSGSKSFSLRINDLTVEDSGTYRCKVIAQLSSILDDCEYRKHDVYGDGTAVTVNA
notes: as for B1
B7: Clone 8.38 (VNAR)
VNAR: ARVDQTPQTITKETGESLTINCVLRDSNCALPSTYWYRKKSGSTNEESISKGGRYVETVNSGSKSFSLRINDLTVEDSGTYRCKVIAQLVLNLRGCNYRKHDVYGDGTAVTVNA
notes: as for B1
B8: Clone 8.24 (VNAR)
VNAR: ARVDQTPQTITKETGESLTINCVLRDSNCALPSTYWYRKKSGSTNEESISKGGRYVETVNSGSKSFSLRINDLTVEDSGTYRCKVIAQLSSILRGCNYFFPDVYGDGTAVTVNA
notes: as for B1
B9: Clone 8.35 (VNAR)
VNAR: ARVDQTPQTITKETGESLTINCVLRDSNCALPSTYWYRKKSGSTNEESISKGGRYVETVNSGSKSFSLRINDLTVEDSGTYRCKVIAELFSILRGCNYRKHDVYGDGTAVTVNA
notes: as for B1
B10: Clone 8.34 (VNAR)
VNAR: ARVDQTPQTITKETGESLTINCVLRDSNCALPSTYWYRKKSGSTNEESISKGGRYVETVNSGSKSFSLRINDLTVEDSGTYRCKVIAQLSSILRGCNYIAYDVYGDGTAVTVNA
notes: as for B1
B11: Clone 8.45 (VNAR)
VNAR: ARVDQTPQTITKETGESLTINCVLRDSNCALPSTYWYRKKSGSTNEESISKGGRYVETVNSGSKSFSLRINDLTVEDSGTYRCKVIAQLSSILRGCNYNMEDVYGDGTAVTVNA
notes: as for B1
B12: Clone 8.36 (VNAR)
VNAR: ARVDQTPQTITKETGESLTINCVLRDSNCALPSTYWYRKKSGSTNEESISKGGRYVETVNSGSKSFSLRINDLTVEDSGTYRCKVIAQLSSILRGCNYWRWDVYGDGTAVTVNA
notes: as for B1
B13: Clone 8.41 (VNAR)
VNAR: ARVDQTPQTITKETGESLTINCVLRDSNCALPSTYWYRKKSGSTNEESISKGGRYVETVNSGSKSFSLRINDLTVEDSGTYRCKVIAPQKSILRGCNYHKIDVYGDGTAVTVNA
notes: as for B1
B14: Clone 8.42 (VNAR)
VNAR: ARVDQTPQTITKETGESLTINCVLRDSNCALPSTYWYRKKSGSTNEESISKGGRYVETVNSGSKSFSLRINDLTVEDSGTYRCKVIAQLFIDLRGCNYRKHDVYGDGTAVTVNA
notes: as for B1
B15: Clone 8.29 (VNAR)
VNAR: ARVDQTPQTITKETGESLTINCVLRDSNCALPSTYWYRKKSGSTNEESISKGGRYVETVNSGSKSFSLRINDLTVEDSGTYRCKVIAQLSSILLTCEYRKHDVYGDGTAVTVNA
notes: as for B1
B16: Clone 8.25 (VNAR)
VNAR: ARVDQTPQTITKETGESLTINCVLRDSNCALPSTYWYRKKSGSTNEESISKGGRYVETVNSGSKSFSLRINDLTVEDSGTYRCKVIAQLSSMELGCNYRKHDVYGDGTAVTVNA
notes: as for B1
B17: Clone 8.43 (VNAR)
VNAR: ARVDQTPQTITKETGESLTINCVLRDSNCALPSTYWYRKKSGSTNEESISKGGRYVETVNSGSKSFSLRINDLTVEDSGTYRCKVIAQLSSILKPCWYRKHDVYGDGTAVTVNA
notes: as for B1
B18: Clone 8.30 (VNAR)
VNAR: ARVDQTPQTITKETGESLTINCVLRDSNCALPSTYWYRKKSGSTNEESISKGGRYVETVNSGSKSFSLRINDLTVEDSGTYRCKVSMLLSSILRGCNYRKHDVYGDGTAVTVNA
notes: as for B1
B19: Clone 8.27 (VNAR)
VNAR: ARVDQTPQTITKETGESLTINCVLRDSNCALPSTYWYRKKSGSTNEESISKGGRYVETVNSGSKSFSLRINDLTVEDSGTYRCKVQGMLSSILRGCNYRKHDVYGDGTAVTVNA
notes: as for B1
B20: Clone 8.44 (VNAR)
VNAR: ARVDQTPQTITKETGESLTINCVLRDSNCALPSTYWYRKKSGSTNEESISKGGRYVETVNSGSKSFSLRINDLTVEDSGTYRCKVIAQLSSILRGCNYLSMDVYGDGTAVTVNA
notes: as for B1
B21: Clone 8.28 (VNAR)
VNAR: ARVDQTPQTITKETGESLTINCVLRDSNCALPSTYWYRKKSGSTNEESISKGGRYVETVNSGSKSFSLRINDLTVEDSGTYRCKVAFILSSILRGCNYRKHDVYGDGTAVTVNA
notes: as for B1
B22: Clone 8.33 (VNAR)
VNAR: ARVDQTPQTITKETGESLTINCVLRDSNCALPSTYWYRKKSGSTNEESISKGGRYVETVNSGSKSFSLRINDLTVEDSGTYRCKVRDALSSILRGCNYRKHDVYGDGTAVTVNA
notes: as for B1
B23: Clone 8.32 (VNAR)
VNAR: ARVDQTPQTITKETGESLTINCVLRDSNCALPSTYWYRKKSGSTNEESISKGGRYVETVNSGSKSFSLRINDLTVEDSGTYRCKVIAQLSSIWKGCKYRKHDVYGDGTAVTVNA
notes: as for B1

How the values were obtained:
recombinant mouse TfR-1 = target: T1, recombinant mouse TfR-1 (mouse, UniProt Q62351 89-763); test: phage ELISA
T1 construct: Recombinant protein coated at 1 ug/ml in the phage ELISA; also called mTfR1; mouse transferrin receptor-1
T1 sequence (Q62351 89-763 limits assumed): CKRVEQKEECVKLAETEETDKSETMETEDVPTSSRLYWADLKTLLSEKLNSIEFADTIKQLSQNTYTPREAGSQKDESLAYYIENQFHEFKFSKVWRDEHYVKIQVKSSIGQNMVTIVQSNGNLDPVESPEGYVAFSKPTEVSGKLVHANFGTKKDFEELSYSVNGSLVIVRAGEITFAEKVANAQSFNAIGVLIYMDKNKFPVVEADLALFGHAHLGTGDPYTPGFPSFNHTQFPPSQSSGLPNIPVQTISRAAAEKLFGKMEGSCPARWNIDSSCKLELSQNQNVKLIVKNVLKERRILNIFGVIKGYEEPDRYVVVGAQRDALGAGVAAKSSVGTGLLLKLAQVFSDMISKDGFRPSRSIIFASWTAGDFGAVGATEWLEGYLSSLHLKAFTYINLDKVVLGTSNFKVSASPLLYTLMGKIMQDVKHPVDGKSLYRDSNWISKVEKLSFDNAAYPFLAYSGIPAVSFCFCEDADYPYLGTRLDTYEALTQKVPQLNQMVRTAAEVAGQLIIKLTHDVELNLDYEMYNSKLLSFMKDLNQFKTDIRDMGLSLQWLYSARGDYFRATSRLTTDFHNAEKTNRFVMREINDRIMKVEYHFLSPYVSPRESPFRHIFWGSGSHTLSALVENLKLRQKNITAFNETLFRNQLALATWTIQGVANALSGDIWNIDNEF

recombinant human TfR-1 = target: T2, recombinant human TfR-1 (human, UniProt P02786 89-760); test: phage ELISA
T2 construct: Recombinant protein coated at 1 ug/ml in the phage ELISA; also called hTfR1; human transferrin receptor-1
T2 sequence (P02786 89-760 limits assumed): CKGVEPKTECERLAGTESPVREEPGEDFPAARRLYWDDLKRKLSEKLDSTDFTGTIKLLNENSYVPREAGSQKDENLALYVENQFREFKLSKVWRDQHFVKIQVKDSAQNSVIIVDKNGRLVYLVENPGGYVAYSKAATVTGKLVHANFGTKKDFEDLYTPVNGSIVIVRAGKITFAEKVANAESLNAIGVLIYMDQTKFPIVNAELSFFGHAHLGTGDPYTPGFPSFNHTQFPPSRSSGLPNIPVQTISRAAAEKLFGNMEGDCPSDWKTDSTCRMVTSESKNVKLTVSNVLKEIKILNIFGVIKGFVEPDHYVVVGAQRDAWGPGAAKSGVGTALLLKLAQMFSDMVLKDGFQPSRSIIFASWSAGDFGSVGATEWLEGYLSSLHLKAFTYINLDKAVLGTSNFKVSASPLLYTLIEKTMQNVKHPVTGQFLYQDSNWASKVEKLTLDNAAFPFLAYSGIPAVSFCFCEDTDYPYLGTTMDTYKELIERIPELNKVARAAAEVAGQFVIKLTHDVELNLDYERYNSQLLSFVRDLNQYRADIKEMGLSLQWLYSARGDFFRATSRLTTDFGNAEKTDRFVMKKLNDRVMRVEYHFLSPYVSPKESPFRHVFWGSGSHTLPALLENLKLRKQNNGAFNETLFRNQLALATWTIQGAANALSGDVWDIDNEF

Binder	A450 (recombinant mouse TfR-1) [A450]	A450 (recombinant human TfR-1) [A450]
B1	0.085	0.055
B2	0.082	0.087
B3	0.071	0.069
B4	0.075	0.077
B5	0.07	0.066
B6	0.07	0.063
B7	0.071	0.075
B8	0.084	0.093
B9	0.071	0.078
B10	0.072	0.078
B11	0.067	0.06
B12	0.071	0.058
B13	0.068	0.072
B14	0.068	0.062
B15	0.077	0.059
B16	0.084	0.06
B17	0.067	0.093
B18	0.077	0.114
B19	0.08	0.079
B20	0.067	0.056
B21	0.077	0.085
B22	0.073	0.09
B23	0.074	0.065
